{"source": "paper PMC5700200", "biological_target": "FLAG-tagged β1 adrenergic receptor (UniProt P34971)", "sequence (P34971 whole entry)": "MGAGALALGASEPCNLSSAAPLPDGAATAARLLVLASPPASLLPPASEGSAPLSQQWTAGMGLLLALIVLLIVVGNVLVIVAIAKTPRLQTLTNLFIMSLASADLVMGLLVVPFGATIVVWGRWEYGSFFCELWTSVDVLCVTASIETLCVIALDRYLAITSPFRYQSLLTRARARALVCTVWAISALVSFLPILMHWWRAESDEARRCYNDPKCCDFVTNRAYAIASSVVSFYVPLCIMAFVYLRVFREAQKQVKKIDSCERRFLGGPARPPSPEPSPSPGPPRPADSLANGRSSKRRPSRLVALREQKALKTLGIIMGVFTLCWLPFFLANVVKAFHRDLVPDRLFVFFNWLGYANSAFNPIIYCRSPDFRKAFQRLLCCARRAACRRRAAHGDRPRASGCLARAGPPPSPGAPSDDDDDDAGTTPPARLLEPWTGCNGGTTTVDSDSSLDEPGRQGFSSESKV", "assay": "proximity ligation; in situ PLA (Duolink) in HEK293 cells stably expressing FLAG-tagged β1AR or β2AR; 10 μM carvedilol, isoproterenol or other βAR ligands for 5 min, with or without 10 μM propranolol for 30 min; fixed, permeabilised; rabbit anti-β1AR (or β2AR) with mouse anti-Gαi", "data": [{"substance": "Gαi (from UniProt P08754 1-354) (natural protein)", "values": [{"measurement": "fold increase in the PLA signal after carvedilol over unstimulated cells", "value": "> 2", "unit": "fold"}]}]}
